From the RNAGym collection of RNA variant scans (doi:10.1073/pnas.2313332121)
Fewer inactive variants are shown than the library holds.

B1: TPR 5TU (parent)
chain: GGAUCUUCUCGAUCUAACAAAAAAGACAAAUCUGCCACAAAGCUUGAGAGCAUCUUCGGAUGCAGAGGCGGCAGCCUUCGGUGGCGCGAUAGCGCCAACGUUCUCAACUAUGACACGCAAAACGCGUGCUCCGUUGAAUGGAGUUUAUCAUG

Variants of: B1
Assay: polymerase ribozyme fitness, log enrichment relative to wild type (log ratio); higher = more active; in vitro selection for triplet polymerase activity
In short: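 In triplicate, a single round of in vitro selection was run on each mutant library, PCR-built and transcribed, covering one subunit of a heterodimeric triplet polymerase ribozyme. Frozen incubation at −7 °C followed annealing with a biotinylated primer, partner subunit and triplets, and extended constructs were then gel-excised, streptavidin-captured and taken through RT-PCR. Fitness is the logarithm of genotype enrichment over wild-type enrichment, from inverse-variance-weighted replicate averages of Illumina-sequenced inputs and outputs. […] only genotypes with ≥10 input reads and ≥1 read per output were kept.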

GGAUCUUCUCGAUCUAACAAAAAAGACACCUCUGCCACAAAGCUUGAGAGCAUCUUCGGAUGCAAAGGCGGCAGCCUUCGGUGGCGCGAUAGUGCCAACGUUCUCAACUAUGACACGCAAAACGCGUGCUCCGUUAAAUGGAGUUUAUCAUG and GGAUCUUCUCGAUCUAACAAAAAAGACUAAUCUGCCACAAAGCUUGAGAGCAUCUUCGGAUGCAGAGGCGGCAGCCCUCGGUGGCGCGAUAGCGCCAACGUUCUCAACUAUGACACGCAAAACGCGUGCUCCGUUGAAUGGAGUUUAUCAUG cannot be ordered by “polymerase ribozyme fitness (log ratio)” value: no more than -4.2 for the first, no more than -4.2 for the second.

GGAUCUUCUCGAUCUAACAAAAAAGACACAUCUGCCACAACGCUUGAGAGCAUCUUCGGAUACAGAGGCGGCAGCCUUCGGUGACGCGAAAGCGCCAACGUUCUCAACUAUGACACGGAAAACGCGUGCUCCGUUGAAUGGAGUUUAUCAUG and GGAUCUUCUCGAUCUAACAAAAAAGACACAUCUGCCACUAAGCUUGAGAGCAUCUUCGGAUGCAGAGGCGGCAGCCUUCGGUGGCGCGAUAGCGCAAACGUUCUCAACUAUGACACGCAAAACGCGUGCUCCGUUGAAUGGAGUUUAUCAUG cannot be ordered by “polymerase ribozyme fitness (log ratio)” value: no more than -4.2 for the first, no more than -4.2 for the second.

GGAUCUUCUCGAUCUAACAAAAAAGACACUUCUGCCACAAAGCUUGAGAGCAUCUUCGGAUGCAGAGGCGGCAGCCUUCGGUGGCGCGAUAGCGCCUACGUUUUCAACUAUGACAGGCAAAACGCGUGCUCCAUUGAAUGGAGUUUAUCAUG and GGAUCUUCUCGAUCUAACAAAAAAGACACAUCUGCCACAGAGCUUGAGAGCAUCUUCGGAUGCAGAGGCGGCAGCCUUCGGUGGCGCGAUAGCGCCAACGUUCUCAACUAUGACACGCAAAAAGCGAGCUCCGUUGAAUGGAGUUUAUCAUG cannot be ordered by “polymerase ribozyme fitness (log ratio)” value: no more than -4.2 for the first, no more than -4.2 for the second.

GGAUCUUCUCGAUCUAACAAAAAAGACACAUCUGCCACAAAGCUUGAGUGCCUAUUCGGAUGCAGAGGCGGCAGCCUUCGGUGGCGCGCUAGCGCCAACGUUCUCAACUAUGACACGCAAAAAGCGUGCUCCGUGGAAUCGAGUUUAUCAUG and GGAUCUUCUCGAUCUAACAAAAAAGACACAUCUGCCACAAUGCUUGAGAGCAUCUUCGGAUGCAGAGGCGGCAGCCUUCGGUAGCGCGAUAGCGCCAACGUUCUCAACUAUGACACGCAAAACGCGUGCUCCGUUGAUUGGAGUUUAUCAUG cannot be ordered by “polymerase ribozyme fitness (log ratio)” value: no more than -4.2 for the first, no more than -4.2 for the second.

GGAUCUUCUCGAUCUAACAAAAAAGACACAUCUGCCACAAAGCUUGAGUGCAUCUUCGGAUGCAGAGGCGGCAGCCUUCGGUGGCGCGAUUGCGCCAACGUUCUCAACUAUGACACGGAAAACGCGUGCUCCGUUGAAUGGAGUUUAUAAUG and GGAUCUUCUCGAUCUAACAAAAAAGACUAAUCUGCCACAAAGCUUGAGAGCAUCUUCGGAUGCAGAGGCGGCAGCCUUCGGUGGCGCGAGAGCGCCAAUGUUCUCAACUAUGACACGCAAAACGCGUGCUCCGUUGAAUGUAGUUUAUCAGG cannot be ordered by “polymerase ribozyme fitness (log ratio)” value: no more than -4.2 for the first, no more than -4.2 for the second.

GGAUCUUCUCGAUCUAACAAAAAAGACACAUCUGCCACAAAGCUUGAGGGCAUCUUCGGAUGCAGAGGCGGCAGCCUUCGGUGGCGAGAUAGCGCCAACGUUCUCAACUAUGACACGCAAAACGCGUGCUCCGUUGAAUGGAGUUUAUCGUG and GGAUCUUCUCGAUCUAACAAAAAAGACACAUCUGCCACAAUGCUUGAGAGCAUCUUCGGAUGCAGAGGCGGCAGCCUUCGCUGGCCCGAUAGCGCCAACGUUCUGUACUAUGACACGCAAAACGCGUGCUCCGUUGAAUGGAGUUUAUCAUG cannot be ordered by “polymerase ribozyme fitness (log ratio)” value: no more than -4.2 for the first, no more than -4.2 for the second.

First: GGAUCUUCUCGAUCUAACAAAAAAGACACAUCUGCCACAUCGCUUGAGAGCAUCUUCGGAUGCAGAGGCGGCAGCCUUCGGUGACGCGAUAGCGCCAACGUUCUCAACUAUGACACGCAAAACGCGUGCUCCGUUGAAUGAAGUUUAUCAUG
Second: GGAUCUUCUCGAUCUAACAAAAAAGACACAUCUGCCACAAAGCUUGAGAGCAUCUUCGGAUGCAGAGGCGGCAGCCUUCGGUGGCGCGAUAGCGCCAACGUUCUCAACUAUGACACGCAAAACGCGUGCUCCGUUGAAUGGAGUUUAUCAUG
The “polymerase ribozyme fitness (log ratio)” value of the first is lower: no more than -4.2 for the first, -3.73 for the second.

GGAUCUUCUCGAUCUAACAAAAAAGACACAUCUGCCACAAAGCUUGAGCGCAUCUUGGGAUGCAGAGGCGGCAGCCUUCGGUGGCGCGAUAGCGCCAACGUUCUCAACUAUGACACGCAAAACGCGUGCUCUGUUGAAUGGAGUUUAUCAUG and GGAUCUUCUCGAUCUAACAAAAAAGACACAUCUGCCUCAAAGCUUGAGAGCAUCUUCGGAUGCAGAGGCGGCAGCCUUCGGUGGCGCGAUAGCGCCAACGUUCUCAACUAUGACACGCAAAACGCGUGCUCCAUUGAAUGGAGUUUAUCAUG cannot be ordered by “polymerase ribozyme fitness (log ratio)” value: no more than -4.2 for the first, no more than -4.2 for the second.

GGAUCUUCUCGAUCUAACAAAAAAGACACAUCUGCCACAAGGCUUGAGAGCAUCUUCGCAUCCAGAGGCGGCAGCCUUCGGUGGCGCGAUAGCGCCAACAUUCUCAACUAUGACACGCAAAACGCGUGCUCCGUUGAAUGCAGUUUAUCAUG and GGAUCUUCUCGAUCUAACAAAAAAGACACAUCUGCCACAAGGCUUGAGAGCAUCUUCGGAUGCAGAGGCGGCAGCCUUCGGUGGCGCGAUAGCGCCCACGUUCUCAACUAUGACACGCAAAUCGCGUGCUCCGUUGAAUGGAGUUUAUCAUG cannot be ordered by “polymerase ribozyme fitness (log ratio)” value: no more than -4.2 for the first, no more than -4.2 for the second.

With GGAUCUUCUCGAUCUAACAAAAAAGACACAUCUGCCACUAAGCUUGAGAGCCUCUUCGGAUGCAGAGGCGGCAGCCUUCGGUGGCGCGAUAGCGCCAACGGUCUCAACUAUGACACGCAAAACGGAUGCUCCGUUGAAUGGAUUUCAUCAUG the “polymerase ribozyme fitness (log ratio)” value was no more than -4.2.
